Values quoted from earlier work in paper PMC7070747.

Tests used:
[1] = target: integrin αvβ3 (Homo sapiens) (UniProt P06756)
[2] = target: integrin αvβ5 (Homo sapiens) (UniProt P06756)
[3] = target: Fibronectin extra domain B EDB (Homo sapiens) (UniProt P02751)
Sequence of UniProt P02751 (P02751 1266-1356): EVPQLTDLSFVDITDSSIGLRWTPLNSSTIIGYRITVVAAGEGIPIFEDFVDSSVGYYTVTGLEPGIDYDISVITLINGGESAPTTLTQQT

Row | Substance | Kd [1] [nM] | Kd [2] [nM] | Kd [3] [nM]
1 | iRGD | 18 | 62 | –
2 | ZD2 | – | – | 11000
